Measured values taken from patent publication US20010041670A1, “Thrombospondin-binding region of histidine-rich glycoprotein and method of use” (priority 1999, published 2001).
“Also recorded” adds a separate entry of the source.

B1: CD36 FP298-439: CD36-GST fusion protein which does not bind TSP-1 (protein)
chain: KAFASPVENPDNYCFCTEKIISKNCTSYGVLDISKCKEGRPVYISLPHFLYASPDVSEPIDGLNPNEEEHRTYLDIEPITGFTLQFAKRLQVNLLVKPSEKIQVLKNLKRNYIVPILWLNETGTIGDEKANMFRSQVTGKIN
modifications: left off: a dimerising Fc or GST
B2: HRGP: Histidine-rich glycoprotein, plasma protein purified from human plasma by lys-plasminogen affinity chromatography (protein)
chain: VSPTDCSAVEPEAEKALDLINKRRRDGYLFQLLRIADAHLDRVENTTVYYLVLDVQESDCSVLSRKYWNDCEPPDSRRPSEIVIGQCKVIATRHSHESQDLRVIDFNCTTSSVSSALANTKDSPVLIDFFEDTERYRKQANKALEKYKEENDDFASFRVDRIERVARVRGGEGTGYFVDFSVRNCPRHHFPRHPNVFGFCRADLFYDVEALDLESPKNLVINCEVFDPQEHENINGVPPHLGHPFHWGGHERSSTTKPPFKPHGSRDHHHPHKPHEHGPPPPPDERDHSHGPPLPQGPPPLLPMSCSSCQHATFGTNGAQRHSHNNNSSDLHPHKHHSHEQHPHGHHPHAHHPHEHDTHRQHPHGHHPHGHHPHGHHPHGHHPHGHHPHCHDFQDYGPCDPPPHNQGHCCHGHGPPPGHLRRRGPGKGPRPFHCRQIGSVYRLPPLRKGEVLPLPEANFPSFPLPHHKHPLKPDNQPFPQSVSESCPGKFKSGFPQVSMFFTHTFPK

Assays:
[1] = target: T1, 125I-TSP-1 binding to HRGP (Homo sapiens, UniProt P07996); test: Solid phase binding assay, competition with CD36 fusion proteins; settings: increasing concentrations of fusion protein
T1 construct: TSP-1 was purified from human platelet releasate; from tissue; host or cells: TSP-1 from human platelet releasate; HRGP from human plasma
T1 sequence (P07996 19-1170): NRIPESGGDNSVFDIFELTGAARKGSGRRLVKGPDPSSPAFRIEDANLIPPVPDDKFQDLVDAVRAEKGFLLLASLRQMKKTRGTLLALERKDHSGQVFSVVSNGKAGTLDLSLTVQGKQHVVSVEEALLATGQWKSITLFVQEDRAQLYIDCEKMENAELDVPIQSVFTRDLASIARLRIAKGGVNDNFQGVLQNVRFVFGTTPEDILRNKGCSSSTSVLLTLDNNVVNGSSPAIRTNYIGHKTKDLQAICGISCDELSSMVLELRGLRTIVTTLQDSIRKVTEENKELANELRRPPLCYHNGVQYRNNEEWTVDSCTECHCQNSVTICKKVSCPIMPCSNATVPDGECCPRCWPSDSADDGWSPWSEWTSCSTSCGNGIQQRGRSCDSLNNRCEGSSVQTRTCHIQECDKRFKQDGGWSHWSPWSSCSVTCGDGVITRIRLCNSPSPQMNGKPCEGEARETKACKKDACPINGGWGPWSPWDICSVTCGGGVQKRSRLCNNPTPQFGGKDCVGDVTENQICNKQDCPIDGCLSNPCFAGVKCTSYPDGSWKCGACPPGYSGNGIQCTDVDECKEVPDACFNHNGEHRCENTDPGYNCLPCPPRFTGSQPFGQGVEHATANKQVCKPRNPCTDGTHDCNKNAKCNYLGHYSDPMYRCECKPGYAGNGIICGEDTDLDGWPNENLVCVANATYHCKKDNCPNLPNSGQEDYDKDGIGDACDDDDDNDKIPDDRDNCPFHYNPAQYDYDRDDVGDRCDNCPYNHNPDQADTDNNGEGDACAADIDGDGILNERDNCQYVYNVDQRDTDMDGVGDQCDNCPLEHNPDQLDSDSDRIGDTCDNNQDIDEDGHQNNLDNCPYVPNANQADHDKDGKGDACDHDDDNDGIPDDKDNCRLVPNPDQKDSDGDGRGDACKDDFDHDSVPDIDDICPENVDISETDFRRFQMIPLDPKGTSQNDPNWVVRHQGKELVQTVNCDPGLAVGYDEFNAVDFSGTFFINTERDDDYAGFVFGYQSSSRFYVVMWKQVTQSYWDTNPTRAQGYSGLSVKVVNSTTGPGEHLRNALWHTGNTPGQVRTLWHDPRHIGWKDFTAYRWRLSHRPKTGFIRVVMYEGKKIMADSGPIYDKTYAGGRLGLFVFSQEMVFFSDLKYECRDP
Description: Solid phase binding assays were performed as described (18). Briefly, HRGP in carbonate buffer was immobilized on 96-well strips (Immulon-4 Remove-a-well, Dynatech Laboratories Inc., Burlington, Mass., USA) overnight at 4° C. After blocking with 1% BSA, ^125I-TSP-1 was incubated in the presence of varying concentrations of CD36-FP in triplicate, and bound radioactivity was quantified on a gamma counter. Non-specific binding was determined by carrying out binding in the presence of excess unlabeled ligand.
TSP-1 binding to HRGP: competition with CD36.

TSP-1 = TSP-1 (Homo sapiens, UniProt P07996); settings: saturable, reversible binding; read-out: affinity of HRGP binding to TSP-1; cited from earlier work
Chain of TSP-1 (P07996 19-1170): as above

CD36 null mice = test: In vivo corneal angiogenesis assay, CD36 null mice
Description: (§1) FIG. 3. HRGP abrogates the effect of endogenous TSP in the corneal angiogenesis assay. Pellets containing bFGF at various doses with and without HRGP (50 ng) were implanted into the corneas of wild type C57BL/6 (closed symbols) or CD 36 null mice (open symbols), and area of neovascularization was measured after five days. HRGP (--●--) augmented the dose-dependent effect of bFGF (—▪—) in the wild type mice (p=0.0004 by ANOVA). In CD36 null mice, there was an enhanced dose response to bFGF (—□—) (p=0.01), but no effect seen with the addition of HRGP (--◯--). Results represent mean±SE of>6 replicates.
(§2) In vivo corneal angiogenesis assays. Pellets composed of hydron (Hydro Med Sciences, Cranbury, N.J.) and sucralfate (Teva Pharmaceuticals, North Wales, Pa.) were mixed with proteins or growth factors, and were prepared and implanted into the comeas of C57B1/6 mice as described (38). After 5 days, eyes were viewed under a dissecting microscope and photographed with a Sony DKC-1000 digital camera. The area of neovascularization was calculated by measuring vessel length from limbus towards the pellet and number of clock hours of vascularization as described (39, 40). Studies were approved by the Institutional Animal Use Committee.
In fact, the dose response curve of bFGF in wild type mice in the presence of HRGP was similar to that seen with bFGF alone in the CD36 null mice. […]

[2] = test system: Human dermal microvascular EC (HMVEC); test: Tube formation assay on Matrigel; assay type: cell-based
Description: Tube Formation Assay. Early passage (P2 or P3) HMVEC in 0.2% MVGS were grown on 150 μl of Matrigel (Becton Dickinson, Bedford, Mass., USA) at 3×10^4 cells per well of 48-well plates. Reagents were added and cells were incubated at 5% CO2, 37° C. for 24 hours then photographed. Images were scanned and number of branched structures was counted using Scion Image software (Frederick, Md., USA).
HRGP inhibits the anti-angiogenic effect of TSP-1 in vitro. Microvascular EC were grown on Matrigel under low serum concentrations (0.2%) in the presence of bFGF (2 ng/ml), conditions which are known to induce tube formation. […] The anti-angiogenic activity of TSP-1 was abolished by the addition of HRGP (15 nM), which restored the ability of the EC to form tubular structures. (c).

C57B1/6 mice = test: In vivo subcutaneous Matrigel plug assay
Description: In vivo subcutaneous Matrigel plug assays were performed as described (23). Briefly, 500 μl of Matrigel mixed with proteins or growth factors was injected subcutaneously near the abdominal midline of C57B1/6 mice. Gels were removed after 10 days, fixed in 1% paraformaldehyde, embedded in paraffin, sectioned, and stained with hematoxylin and eosin. Immunohistochemistry was performed on unstained sections using an anti-human von Willebrand factor (vWF) IgG (Dako, Glostrup, Denmark) or isotype-matched control (Sigma) and a biotin-streptavidin-peroxidase antibody and development system (Vector Laboratories, Burlingame, Calif.) as described (24) and counterstained with Mayer's hematoxylin (ImmunoGenex, San Ramon, Calif., USA). After scanning, the degree of angiogenesis was determined by counts of vWF-positive blood vessels using Scion Image. For breast tissue, frozen sections of freshly obtained human breast carcinoma were incubated with rabbit antibody to HRGP or CSVTCG or murine monoclonal antibody to TSP, or isotype-matched controls (Sigma), and developed as above. These studies were approved by the Institutional Animal Use Committee.
Matrigel mixed was injected subcutaneously into the midline of mice and resulting plugs were harvested after 10 days, fixed, and paraffin embedded, sectioned, stained with. hematoxylin and eosin, and photographed at 200× magnification. […]

[3] = test system: Human dermal microvascular EC (HMVEC); test: Endothelial cell chemotaxis assay (modified Boyden chamber); assay type: cell-based
Description: Endothelial Cell (EC) chemotaxis assays were performed as described using a modified Boyden chamber with 8 μm gelatin-coated membranes (22). Briefly, confluent flasks of HMVEC were grown in 0.1% MVGS overnight and plated at 3×10^4 cells per well on a gelatinized porous membrane (Osmonics, Minnetonka, Minn., USA). Reagents were added to wells and cells were allowed to migrate at 5% CO2, 37° C. for 4 hours. Membranes were stained and the number of cells migrating was counted. Results were expressed as the percentage of maximum cells migrating towards bFGF (38-113 cells/10 high power fields) minus the number of cells migrating in the absence of bFGF (4-13cells/10 hpf).
HRGP inhibits the anti-chemotactic effect of TSP-1. Because the type I repeat also mediates the interaction of TSP-1 with HRGP, we studied the effect of HRGP on angiogenesis. EC migration towards bFGF was measured using a modified Boyden chamber with an 8 μm gelatin-coated membrane in the presence and absence of TSP-1 (2 nM) and increasing concentrations of HRGP (0-100 nM). Data from 3 separate experiments are expressed as a percentage of migration in the presence of bFGF alone. We measured migration of CD36-expressing microvascular EC towards bFGF. The addition of TSP-1 inhibited bFGF-induced migration of EC (approx. 30%±3% of control 100% value without added TSP-1). […]

wild type C57BL/6 mice = test: In vivo corneal angiogenesis assay, wild type mice
Description: as §1, §2
In a second type of in vivo experiment, hydron/sucralfate pellets containing bFGF, TSP-1, and/or HRGP were implanted in the corneas of C57B1/6 mice. […] Similar results were obtained when HRGP was added in a separate pellet from bFGF and TSP-1.
In fact, the dose response curve of bFGF in wild type mice in the presence of HRGP was similar to that seen with bFGF alone in the CD36 null mice. […] The resulting pellet was removed after 10 days, processed and stained for histologic examination and blood vessel counts. TSP-1 inhibited bFGF-induced blood vessel formation (14±8% of blood vessels/mm^2 seen with bFGF), and that HRGP inhibited the anti-angiogenic effect of TSP-1 (80±13%).

inhibition of 125I-TSP-1 binding to immobilized HRGP [1] | Molecule | Kd (TSP-1) | Area of Neovascularization (mm^2) ± SE (CD36 null mice; CD36 −/− mouse, corneal pellet, 5 days) | effect on sensitivity to low concentrations of bFGF (CD36 null mice; HRGP 50 ng, CD36 null mice) | effect on the anti-angiogenic activity of TSP-1 (tube formation) ([2]; HRGP 15 nM added to TSP-1 2 nM + bFGF 2 ng/ml) | induction of tube formation ([2]; agent alone, low serum, Matrigel) | blood vessels/mm^2, % of that seen with bFGF (C57B1/6 mice; HRGP added to bFGF + TSP-1 in Matrigel, 10 days) | angiogenesis in Matrigel plug (histology) (C57B1/6 mice; plugs harvested after 10 days, representative images of 4 experiments) | EC migration towards bFGF, percentage of control ([3]; TSP-1 2 nM plus 10 nM HRGP) | EC migration towards bFGF, percentage of control ([3]; TSP-1 2 nM plus 100 nM HRGP) | effect on angiogenic activity (dose response) of bFGF (wild type C57BL/6 mice; HRGP 50 ng, bFGF 2.5 to 10 ng, wild type mice, p=0.0004 by ANOVA) | Area of Neovascularization (mm^2) ± SE (wild type C57BL/6 mice; Wild type mouse, corneal pellet, 5 days) | induction of corneal angiogenesis by agent alone (wild type C57BL/6 mice; pellet without bFGF)
had no effect | B1 |  |  |  |  |  |  |  |  |  |  |  | 
 | B2 | 7 nM | 0.02 ± 0.004 mm^2 | did not effect sensitivity; also recorded: no effect | abolished | did not directly induce tube formation | 80±13% | had no effect | approx. 30%±15% | approx. 75%±15% | significantly increased; also recorded: augmented | 0 ± 0 mm^2 | did not induce angiogenesis
